Here are results for one substance from paper doi:10.1101/2023.12.10.570967.

The target in the assay is Drosophila Eggless/SetDB1 tandem Tudor domains (3TD, aa 444-700), wild type (Drosophila) (UniProt Q32KD2). Briefly: SPR. Background: In SPR one partner is held on a chip, and binding of the other changes the refractive index at the surface.
Chain of UniProt Q32KD2 (Q32KD2 444-700): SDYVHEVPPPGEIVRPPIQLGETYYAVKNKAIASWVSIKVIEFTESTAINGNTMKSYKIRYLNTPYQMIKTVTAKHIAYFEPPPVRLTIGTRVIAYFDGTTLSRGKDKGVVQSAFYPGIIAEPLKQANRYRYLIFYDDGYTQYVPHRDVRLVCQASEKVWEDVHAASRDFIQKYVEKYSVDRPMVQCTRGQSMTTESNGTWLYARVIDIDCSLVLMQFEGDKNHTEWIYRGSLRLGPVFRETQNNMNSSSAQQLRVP

For orientation: Kd means the constant that tells how readily two partners part at equilibrium. A high value points to weaker binding. In turn, H3K14ac peptide displayed a Kd of 486 µM.
